Consider eleven molecules from US20220112276A1 (Janssen / Centocor, published 2022).

T1: mouse pIgR extracellular domain (ECD) (mouse, UniProt O70570 19-645)
T1 construct: Bought from R&D Systems (Cat 2800-PG-050); also called mpIgR ECD
T1 sequence: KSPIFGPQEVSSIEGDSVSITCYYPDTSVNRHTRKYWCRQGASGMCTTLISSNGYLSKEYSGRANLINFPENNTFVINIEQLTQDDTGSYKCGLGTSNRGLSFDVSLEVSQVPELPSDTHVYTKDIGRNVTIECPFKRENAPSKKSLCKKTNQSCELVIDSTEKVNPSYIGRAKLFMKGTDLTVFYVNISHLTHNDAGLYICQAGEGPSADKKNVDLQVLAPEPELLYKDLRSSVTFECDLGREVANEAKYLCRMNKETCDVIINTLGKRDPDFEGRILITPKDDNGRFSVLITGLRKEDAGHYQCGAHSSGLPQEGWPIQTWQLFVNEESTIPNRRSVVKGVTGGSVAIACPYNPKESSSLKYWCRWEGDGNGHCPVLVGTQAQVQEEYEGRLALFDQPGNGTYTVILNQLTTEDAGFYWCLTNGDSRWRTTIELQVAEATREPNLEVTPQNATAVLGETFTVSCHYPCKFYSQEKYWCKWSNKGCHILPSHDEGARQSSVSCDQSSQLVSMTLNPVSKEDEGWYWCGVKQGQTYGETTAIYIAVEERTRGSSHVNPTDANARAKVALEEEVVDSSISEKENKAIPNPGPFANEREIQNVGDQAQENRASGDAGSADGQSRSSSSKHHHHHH

T2: rat pIgR extracellular domain (rat, UniProt P15083 19-643)
T2 construct: extracellular domain
T2 sequence (looked up): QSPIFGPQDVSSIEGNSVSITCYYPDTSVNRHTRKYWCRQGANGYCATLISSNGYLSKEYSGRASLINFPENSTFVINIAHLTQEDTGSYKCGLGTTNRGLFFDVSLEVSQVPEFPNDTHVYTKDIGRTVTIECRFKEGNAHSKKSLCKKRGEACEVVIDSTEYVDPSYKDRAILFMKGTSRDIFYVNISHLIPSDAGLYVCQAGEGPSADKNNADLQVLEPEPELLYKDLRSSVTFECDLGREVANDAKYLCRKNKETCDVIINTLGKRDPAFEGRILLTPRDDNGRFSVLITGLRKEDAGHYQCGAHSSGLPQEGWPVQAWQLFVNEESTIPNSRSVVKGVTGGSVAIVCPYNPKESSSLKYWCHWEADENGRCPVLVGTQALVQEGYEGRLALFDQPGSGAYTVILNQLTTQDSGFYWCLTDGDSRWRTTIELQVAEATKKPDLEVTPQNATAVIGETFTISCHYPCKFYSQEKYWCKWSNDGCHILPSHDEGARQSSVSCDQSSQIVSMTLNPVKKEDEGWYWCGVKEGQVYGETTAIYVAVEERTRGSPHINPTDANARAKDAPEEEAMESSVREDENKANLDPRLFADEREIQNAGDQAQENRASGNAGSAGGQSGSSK

B1: 01D05R2LS VHH Mono-Fc (Fc fusion)
chain: EVQLVESGGGLVQTGGSLRLSCAASGRTFSPYAMGWFRQAPGKEREFVAAIRWSGATTYKYVGDSVQGRFTISRDAAGNTVYLQMNSVKPEDTAVYYCAADRVPKDISIDPRNPKDWDYWGKGTLVTVSSSPAPELLGGPSVFLFPPKPKDTLMISRTPEVTCVVVDVSHEDPEVKFNWYVDGVEVHNAKTKPREEQYNSTYRVVSVLTVLHQDWLNGKEYKCKVSNKALPAPIEKTISKAKGQPREPQVYTKPPSREEMTKNQVSLSCLVKGFYPSDIAVEWESNGQPENNYKTTVPVLDSDGSFRLASYLTVDKSRWQQGNVFSCSVMHEALHNHYTQKSLSLSPGK
B2: 02F10R3 VHH Mono-Fc (Fc fusion)
chain: EVQLVESGGGLVQPGGSLRLSCVVSGSFFSLRDMGWYRQAPGKERELVGIFTRGGTTYYADSVKGRFTISRDNAKNTVDLQMNSLKPEDTAVYTCNAEIRQYSANLYRDFWGQGTQVTVSSSPAPELLGGPSVFLFPPKPKDTLMISRTPEVTCVVVDVSHEDPEVKFNWYVDGVEVHNAKTKPREEQYNSTYRVVSVLTVLHQDWLNGKEYKCKVSNKALPAPIEKTISKAKGQPREPQVYTKPPSREEMTKNQVSLSCLVKGFYPSDIAVEWESNGQPENNYKTTVPVLDSDGSFRLASYLTVDKSRWQQGNVFSCSVMHEALHNHYTQKSLSLSPGK
B3: 01C02R3LS VHH Mono-Fc (Fc fusion)
chain: QVQLVESGGGLVQAGDSLRLSCAASGRTRTTYGMGWFRQAPGKEREFVTTITWSGSTNYKYYADSVKGRFTISRDNAKNTVYLQMNSLKPDDTAVYYCAASTVLTDPRVPTEYDYWGQGTQVTVSSSPAPELLGGPSVFLFPPKPKDTLMISRTPEVTCVVVDVSHEDPEVKFNWYVDGVEVHNAKTKPREEQYNSTYRVVSVLTVLHQDWLNGKEYKCKVSNKALPAPIEKTISKAKGQPREPQVYTKPPSREEMTKNQVSLSCLVKGFYPSDIAVEWESNGQPENNYKTTVPVLDSDGSFRLASYLTVDKSRWQQGNVFSCSVMHEALHNHYTQKSLSLSPGK
B4: 01H11R2LS VHH Mono-Fc (Fc fusion)
chain: B3 chain with Q1E, R29L, T49A, T52K, D91E, S101G, T105G, P110L, T111N, Q121L
B5: 02E01R3LS VHH Mono-Fc (Fc fusion)
chain: B3 chain with R29F, T105R
B6: 01G08R3LS VHH Mono-Fc (Fc fusion)
chain: B3 chain with R29F, A40G, T49A, A63T, D91E, V109R, P110L, T111N
B7: 01H06R3L VHH Mono-Fc (Fc fusion)
chain: B3 chain with Q1E, S56P, V81A
B8: 01B10R3L VHH Mono-Fc (Fc fusion)
chain: QVQLVESGGGLVQAGDSLRLSCAASGRTFTTYVMGWFRQPPGKEREFVATISWSGSTTYKYYADSVKGRFTISRDNAKNTVYLQMNSLKPEDTAVYYCAASTVVADPRAPNEYDYWGQGTQVTVSSSPAPELLGGPSVFLFPPKPKDTLMISRTPEVTCVVVDVSHEDPEVKFNWYVDGVEVHNAKTKPREEQYNSTYRVVSVLTVLHQDWLNGKEYKCKVSNKALPAPIEKTISKAKGQPREPQVYTKPPSREEMTKNQVSLSCLVKGFYPSDIAVEWESNGQPENNYKTTVPVLDSDGSFRLASYLTVDKSRWQQGNVFSCSVMHEALHNHYTQKSLSLSPGK
B9: 01C08R2L VHH Mono-Fc (Fc fusion)
chain: B3 chain with Q1E, R29F, M34V
B10: 01E01R3LS VHH Mono-Fc (Fc fusion)
chain: QVQLVESGGGLVQAGGSLRLSCAASGRSFSSYNMGWFRQAPGKERDLVAVVTWSGGGTSYADSVKGRFTIARDNANARLYLEMTSLKPEDTAIYYCAATQDWYGGTRAFRAASFHSWGQGTQVTVSSSPAPELLGGPSVFLFPPKPKDTLMISRTPEVTCVVVDVSHEDPEVKFNWYVDGVEVHNAKTKPREEQYNSTYRVVSVLTVLHQDWLNGKEYKCKVSNKALPAPIEKTISKAKGQPREPQVYTKPPSREEMTKNQVSLSCLVKGFYPSDIAVEWESNGQPENNYKTTVPVLDSDGSFRLASYLTVDKSRWQQGNVFSCSVMHEALHNHYTQKSLSLSPGK
B11: 01H08R3 VHH Mono-Fc (Fc fusion)
chain: QVQLVESGGGSVQTGGSLRLSCTASGRTFSNYGMGWFRQAPGKEREFVAGITRSGRTTYYYYADAVKGRFTIPRDNADNTIYLQMDSMKPDDTAVYYCAARQGENNYDPRSGSAYNYWGPGTQVTVSSSPAPELLGGPSVFLFPPKPKDTLMISRTPEVTCVVVDVSHEDPEVKFNWYVDGVEVHNAKTKPREEQYNSTYRVVSVLTVLHQDWLNGKEYKCKVSNKALPAPIEKTISKAKGQPREPQVYTKPPSREEMTKNQVSLSCLVKGFYPSDIAVEWESNGQPENNYKTTVPVLDSDGSFRLASYLTVDKSRWQQGNVFSCSVMHEALHNHYTQKSLSLSPGK

Usually Kd stands for the equilibrium constant for the complex coming apart.

Numbering of substitutions follows the chain as printed.

T4 sequence (A0A2K5WMU9 entry or part of it): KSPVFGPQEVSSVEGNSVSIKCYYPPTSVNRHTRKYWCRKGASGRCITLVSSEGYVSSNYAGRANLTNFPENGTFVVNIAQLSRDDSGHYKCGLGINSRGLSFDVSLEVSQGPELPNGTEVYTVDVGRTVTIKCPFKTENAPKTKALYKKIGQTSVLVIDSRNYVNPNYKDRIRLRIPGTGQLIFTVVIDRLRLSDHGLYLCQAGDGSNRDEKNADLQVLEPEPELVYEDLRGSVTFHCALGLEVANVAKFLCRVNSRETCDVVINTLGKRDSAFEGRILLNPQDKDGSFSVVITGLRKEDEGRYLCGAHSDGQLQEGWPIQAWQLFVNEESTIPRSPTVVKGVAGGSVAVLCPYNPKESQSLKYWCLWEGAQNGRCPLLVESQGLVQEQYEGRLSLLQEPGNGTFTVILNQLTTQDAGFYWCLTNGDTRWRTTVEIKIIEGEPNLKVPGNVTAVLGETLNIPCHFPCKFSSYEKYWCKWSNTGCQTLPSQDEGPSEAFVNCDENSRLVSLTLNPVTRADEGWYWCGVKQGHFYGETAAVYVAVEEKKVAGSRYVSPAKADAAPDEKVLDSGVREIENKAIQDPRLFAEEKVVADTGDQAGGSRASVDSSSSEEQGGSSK

One assay deals with T1, mouse pIgR extracellular domain (ECD). The assay can be described thus: SPR, VHH captured by anti-Fc, ECD analyte. In short, it runs like this:
(§1)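 Single-cycle kinetics: ECD analyte from 30 nM, 3-fold series, low to high, with 30 min off-rate monitoring, over VHH captured at 0.5 ug/ml (~200-300 RU). HBSP plus 100 ug/ml BSA at 30 μL/min. Reference cell and buffer blank subtracted; global 1:1 Langmuir fit gave kon, koff, KD.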
A general note: In SPR one partner is held on a chip, and binding of the other changes the refractive index at the surface.
Turning to B1, the Kd was determined as 13.9 nM.
Regarding B2, the Kd worked out at 6.15 nM.
Same read-out and setting: with B3 the figure was 4.96 nM; with B4, 2.67 nM.
On the same count and under the same terms, with B5 the figure was 2.77 nM.
Same read-out and setting: with B6 the figure was 5.6 nM; with B7, 4.56 nM.
B8: binding was put at a Kd of 3.75 nM.
B9 yielded a Kd of 5.67 nM.
B10: binding was characterised by a dissociation constant (Kd) of 34.5 nM.
With B11, the Kd is 3.95 nM.

The target in a further assay is T3, human pIgR extracellular domain (ECD) (human, UniProt P01833 19-638).
T3 construct: Bought from R&D Systems (Cat 2717-PG-050); also called hpIgR ECD
T3 sequence (P01833 other isoform, or with tags, fused parts or gaps): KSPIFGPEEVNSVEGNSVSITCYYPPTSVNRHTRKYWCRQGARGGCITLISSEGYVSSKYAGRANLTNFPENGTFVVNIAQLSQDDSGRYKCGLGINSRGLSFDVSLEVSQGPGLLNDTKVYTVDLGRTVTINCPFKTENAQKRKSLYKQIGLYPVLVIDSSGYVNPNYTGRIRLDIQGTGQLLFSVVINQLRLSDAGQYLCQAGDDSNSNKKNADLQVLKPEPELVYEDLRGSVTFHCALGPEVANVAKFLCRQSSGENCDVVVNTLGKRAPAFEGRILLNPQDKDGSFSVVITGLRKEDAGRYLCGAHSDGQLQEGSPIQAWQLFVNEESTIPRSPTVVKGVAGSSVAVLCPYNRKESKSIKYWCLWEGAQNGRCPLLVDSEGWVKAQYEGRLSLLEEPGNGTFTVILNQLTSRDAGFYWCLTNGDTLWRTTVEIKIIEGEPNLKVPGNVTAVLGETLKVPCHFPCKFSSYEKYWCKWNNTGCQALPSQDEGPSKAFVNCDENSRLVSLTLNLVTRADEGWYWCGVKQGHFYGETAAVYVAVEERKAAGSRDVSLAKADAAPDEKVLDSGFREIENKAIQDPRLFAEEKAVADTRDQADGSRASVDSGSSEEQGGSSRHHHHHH
The assay can be described thus: SPR, VHH captured by anti-Fc, ECD analyte. The procedure, abridged:
as §1
B1 registered an equilibrium dissociation constant (Kd) of 7.9 nM.
On the same count and under the same terms, then B3, with 8.62 nM; and B4, with 4.07 nM; and B5, with 5.32 nM.
Molecule B6 came in with a Kd of 8.38 nM.
Regarding B7, the Kd came out at 5.26 nM.
Still for that read-out and setting: with B8 the figure was 8.4 nM; with B9, 9.44 nM; with B10, 14.5 nM.
For B11, binding was characterised by a dissociation constant (Kd) of 61 nM.

Another assay deals with T2, rat pIgR extracellular domain. As to the kind of experiment: SPR, VHH captured by anti-Fc, ECD analyte. The procedure, abridged: as §1
Molecule B1 gave a Kd of 33.3 nM.
Regarding B2, binding was put at a Kd of 6.45 nM.
On the same count and under the same terms, with B3 the figure was 2.77 nM; with B4, 1.46 nM.
On the same count and under the same terms, with B5 the figure was 1.64 nM.
In turn, B6 came in with a Kd of 2.27 nM.
Molecule B7 yielded a Kd of 0.897 nM.
The same measure, in the same setting: then B8, with 1.58 nM; and B9, with 3.02 nM; and B10, with 35.2 nM.
B11 returned a Kd of 6.19 nM.

The next assay addresses T4, cynomolgus monkey pIgR extracellular domain (cynomolgus monkey, UniProt A0A2K5WMU9 19-638).
T4 construct: extracellular domain
As to the kind of experiment: SPR, VHH captured by anti-Fc, ECD analyte. In short, it runs like this:
as §1
B1: the Kd worked out at 116 nM.
Same read-out and setting: then B3, with 3.09 nM; and B4, with 2.31 nM.
On the same count and under the same terms, then B5, with 5.05 nM.
B6 showed a Kd of 5.42 nM.
The same measure, in the same setting: then B7, with 1.66 nM.
Still for that read-out and setting: with B8 the figure was 2.19 nM.
The same measure, in the same setting: with B9 the figure was 4.14 nM; with B11, 44.3 nM.
